# Experimental data from paper PMC11946523 (Toxins, 2025).
# How the values were obtained:
# [1] = biological target: Botulinum neurotoxin serotype A (BoNT/A) holotoxin (Clostridium botulinum serotype A, …, UniProt P0DPI1); experiment: SPR; Biacore; […] (50 ug/mL) […], in HBS-EP ([…]; 120 s flow, 600 s dissociation; […]; conditions: both partners purified
# [2] = biological target: recombinant C-terminal domain of the BoNT/A heavy chain (heavy chain receptor domain, HCR) (Clostridium botulinum serotype A, …, UniProt P0DPI1); experiment: as above; conditions: both partners purified
binder,measurement,setting,value
"HZ45 humanized monoclonal antibody (antibody, V domains shown, also called HZ45 mAb; HZ45 antibody; source: CHO-K1, transfected, purified from culture medium (ammonium sulfate, HIC-Phenyl)) VH: EVQLVQSGAEVKKPGASVKVSCKASGYTFTDYYINWVRQATGQGLEWLGESYPGSGTAFYNEKFKGKATLTADKSKNTAYMELSSLRSEDTAVYFCARSDGSPFAYWGQGTLVTVSS VL: DIQMTQSPSSLSASVGDRVTITCKASDYINNWLAWYQQKPGKAPKLLISGAISLETGVPSRFSGSGSGTDYTLTISSLQPEDFATYYCQQYWSPPLTFGQGTKVEIK",Kd,[1],0.551 nM
same,Kd,[2],0.0423 nM
